For 2 molecules, interaction score results are on record in PMC10397247.

The target in one assay is T1, APC3323-AA.
T1 chain: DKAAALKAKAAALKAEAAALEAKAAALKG
As to the kind of experiment: two-hybrid library CCmax.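 Note: natural log of median RNA to DNA barcode read ratio; higher means stronger binding.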 Conditions: mean of both orientations.

The target in the next assay is T2, APC6088-AA.
T2 chain: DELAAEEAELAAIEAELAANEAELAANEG
As to the kind of experiment: two-hybrid library CCmax.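 Note: natural log of median RNA to DNA barcode read ratio; higher means stronger binding.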 The settings on record: mean of both orientations.

The target in a further assay is T3, APC5009-AA.
T3 chain: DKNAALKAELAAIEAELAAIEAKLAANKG
As to the kind of experiment: two-hybrid library CCmax.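 Note: natural log of median RNA to DNA barcode read ratio; higher means stronger binding.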 The settings on record: mean of both orientations.

The next assay concerns the target T4, APC542-AA.
T4 chain: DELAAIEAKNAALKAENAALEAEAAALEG
Nature of the assay: two-hybrid library CCmax.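 Note: natural log of median RNA to DNA barcode read ratio; higher means stronger binding.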 The settings on record: mean of both orientations.

The next assay addresses T5, APC4100-AA.
T5 chain: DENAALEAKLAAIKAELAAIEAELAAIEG
Nature of the assay: two-hybrid library CCmax.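 Note: natural log of median RNA to DNA barcode read ratio; higher means stronger binding.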 The settings on record: mean of both orientations.

In another assay the target is T6, APC4336-AA.
T6 chain: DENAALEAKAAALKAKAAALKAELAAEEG
As to the kind of experiment: two-hybrid library CCmax.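 Note: natural log of median RNA to DNA barcode read ratio; higher means stronger binding.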 Conditions: mean of both orientations.

For another assay, the target named is T7, APC8516-AA.
T7 chain: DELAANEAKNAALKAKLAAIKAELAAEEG
Nature of the assay: two-hybrid library CCmax. Conditions: mean of both orientations.

For another assay, the target named is T8, APC9291-AA.
T8 chain: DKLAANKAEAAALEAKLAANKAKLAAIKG
Nature of the assay: two-hybrid library CCmax. Conditions: mean of both orientations.

The next assay addresses T9, APC8401-AA.
T9 chain: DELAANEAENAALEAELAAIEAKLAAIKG
As to the kind of experiment: two-hybrid library CCmax. The settings on record: mean of both orientations.

For another assay, the target named is T10, APC7524-AA.
T10 chain: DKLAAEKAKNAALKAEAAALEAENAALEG
Nature of the assay: two-hybrid library CCmax. Conditions: mean of both orientations.

The target in the next assay is T11, APC9806-AA.
T11 chain: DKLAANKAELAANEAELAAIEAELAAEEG
Nature of the assay: two-hybrid library CCmax. Conditions: mean of both orientations.

For the next assay, the target named is T12, APC3881-AA.
T12 chain: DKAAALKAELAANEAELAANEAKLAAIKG
Nature of the assay: two-hybrid library CCmax. The settings on record: mean of both orientations.

The next assay deals with T13, APC5531-AA.
T13 chain: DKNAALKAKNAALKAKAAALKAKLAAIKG
Nature of the assay: two-hybrid library CCmax. The settings on record: mean of both orientations.

A further assay concerns the target T14, APC9141-AA.
T14 chain: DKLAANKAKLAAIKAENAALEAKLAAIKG
As to the kind of experiment: two-hybrid library CCmax. The settings on record: mean of both orientations.

For another assay, the target named is T15, APC9182-AA.
T15 chain: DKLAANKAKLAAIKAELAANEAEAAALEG
Nature of the assay: two-hybrid library CCmax. The settings on record: mean of both orientations.

The target in a further assay is T16, APC3354-AA.
T16 chain: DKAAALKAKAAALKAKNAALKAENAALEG
Nature of the assay: two-hybrid library CCmax. The settings on record: mean of both orientations.

In the next assay the target is T17, APC3265-AA.
T17 chain: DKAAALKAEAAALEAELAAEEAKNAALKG
Nature of the assay: two-hybrid library CCmax.

The next assay addresses T18, 4H953-bN.
T18 chain: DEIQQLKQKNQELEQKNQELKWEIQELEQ
As to the kind of experiment: two-hybrid library CCNG1.

For the next assay, the target named is T19, 4H346-bN.
T19 chain: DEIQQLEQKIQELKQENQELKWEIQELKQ
Nature of the assay: two-hybrid library CCNG1.

The next assay deals with T20, 4H683-bN.
T20 chain: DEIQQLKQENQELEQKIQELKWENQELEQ
Nature of the assay: two-hybrid library CCNG1.

The next assay has as its target T21, 4H855-bN.
T21 chain: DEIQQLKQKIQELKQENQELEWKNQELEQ
As to the kind of experiment: two-hybrid library CCNG1.

For a further assay, the target named is T22, 4H918-bN.
T22 chain: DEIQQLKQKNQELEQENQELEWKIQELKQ
Nature of the assay: two-hybrid library CCNG1.

The target in a further assay is T23, 4H797-bN.
T23 chain: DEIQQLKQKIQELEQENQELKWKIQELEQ
Nature of the assay: two-hybrid library CCNG1.

The next assay has as its target T24, 4H457-bN.
T24 chain: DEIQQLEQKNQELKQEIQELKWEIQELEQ
As to the kind of experiment: two-hybrid library CCNG1.

In the next assay the target is T25, 4H4073-bN.
T25 chain: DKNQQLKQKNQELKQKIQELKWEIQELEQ
As to the kind of experiment: two-hybrid library CCNG1.

The next assay concerns the target T26, 4H754-bN.
T26 chain: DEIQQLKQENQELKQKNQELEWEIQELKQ
Nature of the assay: two-hybrid library CCNG1.

The next assay deals with T27, 4H575-bN.
T27 chain: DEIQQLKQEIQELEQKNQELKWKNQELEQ
As to the kind of experiment: two-hybrid library CCNG1.

A further assay deals with T28, 4H370-bA.
T28 chain: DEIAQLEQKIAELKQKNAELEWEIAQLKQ
As to the kind of experiment: two-hybrid library CCNG1.

The target of the next assay is T29, 4H968-bN.
T29 chain: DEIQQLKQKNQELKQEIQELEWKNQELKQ
As to the kind of experiment: two-hybrid library CCNG1.

For a further assay, the target named is T30, 4H72-bH.
T30 chain: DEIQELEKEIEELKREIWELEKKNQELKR
As to the kind of experiment: two-hybrid library CCNG1.

For another assay, the target named is T31, 4H780-bN.
T31 chain: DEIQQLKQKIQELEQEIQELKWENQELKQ
As to the kind of experiment: two-hybrid library CCNG1.

For the next assay, the target named is T32, 4H3926-bN.
T32 chain: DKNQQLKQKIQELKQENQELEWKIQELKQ
As to the kind of experiment: two-hybrid library CCNG1.

In the case of DKAAALKAEAAALEAELAAEEAKNAALKG [APC3265-AA], the interaction score with APC3323-AA is -1.79; with APC6088-AA, -1.89; with APC5009-AA it was -1.45; with APC542-AA it was -1.56; in the assay with APC4100-AA, -1.05; with APC4336-AA, -1.54. Also, the interaction score with APC8516-AA was -1.33; with APC9291-AA, -1.49; with APC8401-AA, -1.36; in the assay with APC7524-AA, -1.43; with APC9806-AA, -1.38; with APC3881-AA, -1.45. In addition, the interaction score is -1.82 with APC5531-AA; -1.63 with APC9141-AA; -1.78 in the assay with APC9182-AA; -1.86 with APC3354-AA; -1.08 with APC3265-AA.
For the molecule DEIQQLEQKIQELKQENQELKWEIQELKQ [4H346-bN], the interaction score with 4H953-bN was -0.533; with 4H346-bN it was 1.02; in the assay with 4H683-bN, 0.0158; with 4H855-bN, -0.517; with 4H918-bN, -0.654; in the assay with 4H797-bN, -0.125. The interaction score with 4H457-bN was -0.931; with 4H4073-bN it was -0.58; with 4H754-bN, -0.573; in the assay with 4H575-bN, -0.652; in the assay with 4H370-bA it was 0.693; with 4H968-bN, -0.647. The interaction score with 4H72-bH came out at 0.0876; in the assay with 4H780-bN, 0.0007; with 4H3926-bN it was 1.53.
